The values that follow come from paper PMC7033585.

pKd: −log10 of the molar value.

By pKd is commonly meant the Kd on a negative log10 scale, so that one unit is a factor of ten. For orientation: stoichiometry N means a count of units in the complex or per binding partner.

The target of assay [1] is CdiI536 (Escherichia coli) (UniProt Q0T964). The note with it: cited from earlier work.
The target in assay [2] is YeeF-CT^H581A, C-terminal toxic domain of YeeF (Ile527 to Gly669) with the point mutation H581A (Bacillus subtilis subsp. spizizenii str. W23) (UniProt O31506). The assay is described as follows: AUC; sedimentation velocity of each protein alone at 8, 16 and 32 μM; 20 mM HEPES pH 7.5, 150 mM NaCl; 40,000 rpm, 25°C; c(s) fit with SEDFIT.
For assay [3], the target named is YeeF-CT^H581A, point variant of the C-terminal toxic domain of YeeF (Bacillus subtilis subsp. spizizenii str. W23) (UniProt O31506). The assay is described as above.
The target is the same in assay [4]. Kind of assay: ITC; YeeF-CT^(M) 10 μM in the cell, YezG 300 μM in the syringe; 25°C; 20 mM HEPES pH 7.5, 150 mM NaCl; two binding site model.
For assay [5] the target is unchanged. Kind of assay: AUC; sedimentation velocity of mixtures: YeeF-CT fixed, increasing YezG, incubated at 4°C for 1 h beforehand; 20 mM HEPES pH 7.5, 150 mM NaCl; 25°C.

For the substance CdiA-CT536 CT (from UniProt Q0T963), the negative logarithm of the Kd (pKd) in assay [1] was 7.58.

In assay [2], “YeeF-CT^H581A, C-terminal toxic domain of YeeF (Ile527 to Gly669) with the point mutation H581A (from UniProt O31506 527-669) (domain or fragment)” displayed a stoichiometry N of 2. For “YeeF-CT^H581A, point variant of the C-terminal toxic domain of YeeF (from UniProt O31506 527-669) (domain or fragment)”, the stoichiometry N in assay [3] worked out at 2.

Consider “YezG immunity protein (from UniProt C0H3X4 1-151) (natural protein)”, for which, in assay [4], the KD1 (first site of the two-site fit) was 29.4 nM and the KD2 (second site of the two-site fit) is 91.7 nM. In addition, the stoichiometry N (YezG monomers per YeeF-CT dimer) in assay [5] came out at 2.
